Experimental findings from paper PMC2064262 (The Journal of Cell Biology, 2006) are described below.

This assay concerns the target N-syndecan ectodomain IgG fusion protein (UniProt P33671 45-387, glycosylated (proteoglycan fragment with heparan sulfate chains)). Description: ELISA.

N-syndecan ectodomain IgG fusion protein, sequence (P33671 45-387): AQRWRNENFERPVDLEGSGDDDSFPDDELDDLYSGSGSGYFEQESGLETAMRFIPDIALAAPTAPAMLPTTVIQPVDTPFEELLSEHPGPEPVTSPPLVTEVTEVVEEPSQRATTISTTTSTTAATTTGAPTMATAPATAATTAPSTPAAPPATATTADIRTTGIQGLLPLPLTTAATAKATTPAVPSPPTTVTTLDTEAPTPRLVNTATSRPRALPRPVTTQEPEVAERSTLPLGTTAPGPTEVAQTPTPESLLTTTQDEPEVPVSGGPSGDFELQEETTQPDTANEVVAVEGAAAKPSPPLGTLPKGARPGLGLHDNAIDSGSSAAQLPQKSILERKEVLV

B1: heparin-binding EGF-like growth factor (HB-EGF), human recombinant (ligand, UniProt Q99075 63-148, looked up)
chain: DLQEADLDLLRVTLSSKPQALATPNKEEHGKRKKKGKGLGKKRDPCLRKYKDFCIHGECKYVKELRAPSCICHPGYHGERCHGLSL
Molecule B1 yielded a Kd of 15 nM.

B2: heparin-binding growth-associated molecule (HB-GAM; pleiotrophin) (ligand, UniProt P63090 33-168, looked up)
chain: GKKEKPEKKVKKSDCGEWQWSVCVPTSGDCGLGTREGTRTGAECKQTMKTQRCKIPCNWKKQFGAECKYQFQAWGECDLNTALKTRTGSLKRALHNADCQKTVTISKPCGKLTKPKPQAESKKKKKEGKKQEKMLD
B2: binding was characterised by a dissociation constant (Kd) of 12 nM. The Kd values of the last two molecules are within 1.5-fold of each other.
